From paper PMC3742519

Biological target: subtilisin A (Bacillus licheniformis) (Bacillus licheniformis) (UniProt P00780)
Assay: enzyme inhibition kinetics (Lineweaver–Burk); substrate (AAPF) added to an equilibrium mixture of subtilisin A and rEs-DWD1; competitive inhibition, inhibitor at 0, 2.5 and 5 μM; 0.1 M Tris-HCl pH 8.0, 37 °C; p-nitroaniline read at 405 nm

Chain of UniProt P00780 (P00780 106-379): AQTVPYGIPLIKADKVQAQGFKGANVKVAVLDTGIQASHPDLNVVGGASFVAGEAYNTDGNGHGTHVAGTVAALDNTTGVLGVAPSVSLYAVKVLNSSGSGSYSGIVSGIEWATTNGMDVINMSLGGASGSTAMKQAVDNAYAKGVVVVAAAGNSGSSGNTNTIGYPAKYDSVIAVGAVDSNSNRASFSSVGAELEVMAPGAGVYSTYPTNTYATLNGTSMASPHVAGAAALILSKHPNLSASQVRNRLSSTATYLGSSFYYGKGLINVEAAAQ

“recombinant Es-DWD1 (double WAP domain-containing protein from Eriocheir sinensis) (natural protein)” showed a Ki of 4.12 nM.
